The values below come from patent US20150086555A1.

Conditions in all cases: remark: other sources report otherwise
Assay [1] addresses recombinant soluble homotrimeric HA of A/Japan/305/57 (H2N2) (Influenza A virus A/Japan/305/1957(H2N2)). The assay can be described thus: HA microarray, BCC supernatant.
The target of assay [2] is recombinant soluble homotrimeric HA of A/Netherlands/219/03 (H7N7) (Influenza A virus A/Netherlands/219/03(H7N7)). Briefly: HA microarray, BCC supernatant.
Assay [3] has as its target recombinant soluble homotrimeric HA of A/Solomon Islands/3/06 (H1N1) (Influenza A virus A/Solomon Islands/3/2006(H1N1)). The assay can be described thus: HA microarray, BCC supernatant.
Assay [4] concerns the target recombinant soluble homotrimeric HA of A/Wisconsin/67/05 (H3N2) (Influenza A virus A/Wisconsin/67/2005(H3N2)). The assay can be described thus: HA microarray, BCC supernatant.
Assay [5] has as its target T1, recombinant soluble homotrimeric HA of A/chicken/Vietnam/NCVD-016/08 (H5N1) (Influenza A virus A/chicken/Vietnam/NCVD-016/2008(H5N1)). The assay can be described thus: HA microarray, BCC supernatant.
Assay [6] deals with recombinant soluble homotrimeric HA of A/swine/Ontario/01911-2/99 (H4N6) (Influenza A virus A/Swine/Ontario/01911-2/99 (H4N6)). Briefly: HA microarray, BCC supernatant.
Assay [7] concerns the target recombinant soluble homotrimeric HA, A/Japan/305/57 H2N2 (Influenza A virus A/Japan/305/1957(H2N2)). Briefly: microarray, transfection SN IgG, trimeric HA.
Assay [8] has as its target recombinant soluble homotrimeric HA, A/Netherlands/219/03 H7N7 (Influenza A virus A/Netherlands/219/03(H7N7)). The assay can be described thus: microarray, transfection SN IgG, trimeric HA.
Assay [9] has as its target recombinant soluble homotrimeric HA, A/South Carolina/1/18 H1N1 (Influenza A virus A/South Carolina/1/18 (H1N1)). The assay can be described thus: microarray, transfection SN IgG, trimeric HA.
Assay [10] addresses recombinant soluble homotrimeric HA, A/Wisconsin/67/05 H3N2 (Influenza A virus A/Wisconsin/67/2005(H3N2)). Briefly: microarray, transfection SN IgG, trimeric HA.
The target in assay [11] is recombinant soluble homotrimeric HA, A/chicken/Vietnam/NCVD-016/08 H5N1 (Influenza A virus A/chicken/Vietnam/NCVD-016/2008(H5N1)). Briefly: microarray, transfection SN IgG, trimeric HA.
The target of assay [12] is recombinant soluble homotrimeric HA, A/duck/Yangzhou/02/05 H8N4 (Influenza A virus A/duck/Yangzhou/02/2005(H8N4)). Briefly: microarray, transfection SN IgG, trimeric HA.
The target in assay [13] is recombinant soluble homotrimeric HA, A/northern shoveler/California/HKWF115/07 H6N4 (Influenza A virus A/northern shoveler/California/HKWF115/2007(H6N1)). Briefly: microarray, transfection SN IgG, trimeric HA.
Assay [14] concerns the target recombinant homotrimeric HA A/Hong Kong/1073/99 H9N2 (Influenza A virus A/Hong Kong/1073/99 (H9N2)). Briefly: protein microarray, purified IgG, trimeric HA.
The target of assay [15] is recombinant homotrimeric HA A/Japan/305/57 H2N2 (Influenza A virus A/Japan/305/1957(H2N2)). Briefly: protein microarray, purified IgG, trimeric HA.
Assay [16] has as its target recombinant homotrimeric HA A/Netherlands/219/03 H7N7 (Influenza A virus A/Netherlands/219/03(H7N7)). Briefly: protein microarray, purified IgG, trimeric HA.
In assay [17] the target is recombinant homotrimeric HA A/Solomon Islands/3/06 H1N1 (Influenza A virus A/Solomon Islands/3/2006(H1N1)). The assay can be described thus: protein microarray, purified IgG, trimeric HA.
Assay [18] addresses recombinant homotrimeric HA A/South Carolina/1/18 H1N1 (Influenza A virus A/South Carolina/1/18 (H1N1)). Briefly: protein microarray, purified IgG, trimeric HA.
Assay [19] addresses recombinant homotrimeric HA A/Wisconsin/67/05 H3N2 (Influenza A virus A/Wisconsin/67/2005(H3N2)). The assay can be described thus: protein microarray, purified IgG, trimeric HA.
The target in assay [20] is recombinant homotrimeric HA A/chicken/Vietnam/NCVD-016/08 H5N1 (Influenza A virus A/chicken/Vietnam/NCVD-016/2008(H5N1)). Briefly: protein microarray, purified IgG, trimeric HA.
Assay [21] addresses recombinant homotrimeric HA A/duck/Yangzhou/02/05 H8N4 (Influenza A virus A/duck/Yangzhou/02/2005(H8N4)). The assay can be described thus: protein microarray, purified IgG, trimeric HA.
Assay [22] addresses recombinant soluble homotrimeric HA of A/Indonesia/5/05 (H5N1) (Influenza A virus A/Indonesia/5/2005(H5N1)). The assay can be described thus: HA microarray, BCC supernatant.
Assay [23] concerns the target T2, recombinant soluble homotrimeric HA of A/Vietnam/1203/04 (H5N1) (Influenza A virus A/VietNam/1203/2004(H5N1)). Briefly: HA microarray, BCC supernatant.
For assay [24], the target named is recombinant homotrimeric HA A/Anhui/1/05 H5N1 (Influenza A virus A/Anhui/1/2005(H5N1)). The assay can be described thus: protein microarray, purified IgG, trimeric HA.
For assay [25], the target named is recombinant homotrimeric HA A/California/4/09 H1N1 (Influenza A virus A/California/04/2009(H1N1)). The assay can be described thus: protein microarray, purified IgG, trimeric HA.
The target in assay [26] is recombinant homotrimeric HA A/Egypt/3300-NAMRU3/08 H5N1 (Influenza A virus A/Egypt/3300-NAMRU3/2008(H5N1)). Briefly: protein microarray, purified IgG, trimeric HA.
Assay [27] concerns the target recombinant homotrimeric HA A/Hong Kong/2108/03 H9N2 (Influenza A virus A/HK/2108/2003(H9N2)). The assay can be described thus: protein microarray, purified IgG, trimeric HA.
For assay [28], the target named is recombinant homotrimeric HA A/Indonesia/5/05 H5N1 (Influenza A virus A/Indonesia/5/2005(H5N1)). The assay can be described thus: protein microarray, purified IgG, trimeric HA.
In assay [29] the target is recombinant homotrimeric HA A/Vietnam/1203/04 H5N1 (Influenza A virus A/VietNam/1203/2004(H5N1)). Briefly: protein microarray, purified IgG, trimeric HA.
Assay [30] addresses recombinant soluble homotrimeric HA of A/South Carolina/1/18 (H1N1) (Influenza A virus A/South Carolina/1/18 (H1N1)). The assay can be described thus: trimeric HA microarray, transfection supernatant set 5.
Assay [31] concerns the target T2, recombinant soluble homotrimeric HA of …. The assay is described as above.
Assay [32] concerns the target T1, recombinant soluble homotrimeric HA of …. The assay is described as above.
The target in assay [33] is recombinant soluble homotrimeric HA, A/California/4/09 H1N1 (Influenza A virus A/California/04/2009(H1N1)). Briefly: microarray, transfection SN IgG, trimeric HA.
Assay [34] addresses recombinant soluble homotrimeric HA, A/Egypt/3300-NAMRU3/08 H5N1 (Influenza A virus A/Egypt/3300-NAMRU3/2008(H5N1)). The assay can be described thus: microarray, transfection SN IgG, trimeric HA.
Assay [35] addresses recombinant soluble homotrimeric HA, A/Solomon Islands/3/06 H1N1 (Influenza A virus A/Solomon Islands/3/2006(H1N1)). The assay can be described thus: microarray, transfection SN IgG, trimeric HA.
Assay [36] deals with recombinant soluble homotrimeric HA, A/swine/Ontario/01911-2/99 H4N6 (Influenza A virus A/Swine/Ontario/01911-2/99 (H4N6)). The assay can be described thus: microarray, transfection SN IgG, trimeric HA.
The target in assay [37] is recombinant homotrimeric HA A/northern shoveler/California/HKWF115/07 H6N4 (Influenza A virus A/northern shoveler/California/HKWF115/2007(H6N1)). The assay can be described thus: protein microarray, purified IgG, trimeric HA.

B1: TCN-554 (5277_M05) (antibody, V domains shown)
VH: QVQLVQSGADLKKPGASVKVSCKASGYTFTDYYIHWVRQAPGQGLEWMGWINPESGDTKYAQKFQGRVTMTRDTSITTAYMELGRLRSDDTAVYYCARDVSTTWSWFAPWGQGTLVTVSS
VL: DIVMTQSPDSLAVSLGERATINCRSSQSIFHNSNNENYLAWYQQKPGQPPKLLIYWASTRESGVPDRFSGSGSGTDFTLTISSLQAEDVAVYFCQQYYNAPLTFGGGTKVEIK
Take B1: the Trimeric HA Binding: RLU in assay [1] was 328 RLU; in assay [2], 610 RLU; in [3], 115 RLU; in assay [4], 46500 RLU; in [5] it was 250 RLU; in [6] it was 78 RLU. For the same molecule, the Trimeric HA Binding: RLU in assay [7] was 2620 RLU; in [8] it was 4520 RLU; in assay [9], 1260 RLU; in assay [10], 25300 RLU; in assay [11], 2710 RLU; in assay [12], 5810 RLU. Moreover, the Trimeric HA Binding: RLU in [13] was 3350 RLU; in assay [14], 539 RLU; in assay [15], 705 RLU; in assay [16] it was 342 RLU; in assay [17], 1540 RLU; in assay [18] it was 166 RLU. Besides, the Trimeric HA Binding: RLU in assay [19] amounted to 27100 RLU; in assay [20] it was 544 RLU; in assay [21], 386 RLU.

B2: TCN-541 (5062_M11) (antibody, V domains shown)
VH: QVQLQESGPGLVKPSETLSLTCTVSGGSINSYYWNWIRQPPGKGLEWIGYIYHSGSTNYNPSLKSRVTISVDTSKNQFSLQLSSVTAADTAVYYCARLRTDYGDPDSVYYYGMDVWGQGTTVTVSS
VL: SYELTQPPSVSVSPGQTARITCSGDALPKQNAYWYQQKPGQAPVLLIYKDSERPSGIPERFSGSSSGTTVTLTISGVQAEDEADYYCQSADSSGTSWVFGGGTKLTVL
Consider B2, for which the Trimeric HA Binding: RLU in assay [22] is 30 RLU; in [23], 43 RLU; in [4], 2920 RLU; in [24] it was 970 RLU; in assay [25], 348 RLU; in [26], 791 RLU. For the same molecule, the Trimeric HA Binding: RLU in assay [27] came to 175 RLU; in [28], 160 RLU; in [15], 934 RLU; in assay [18], 192 RLU; in assay [29] it was 1150 RLU; in assay [21], 352 RLU. The Trimeric HA Binding: RLU in assay [30] is 2580 RLU; in assay [31] it was 45500 RLU; in assay [32], 11000 RLU.

B3: TCN-558 (5248_H10b) (antibody, V domains shown)
VH: QVQLVQSGSEVKKPGTSVKVSCTASGSVFTNYGISWVRQAPGQGLEWMGGIIPLFGAAKYAQKFQGRVTITADESTKTVYMELSRLTSKDTAIYFCAKAPRVYEYYFDQWGQGTPVTVSS
VL: EIVMTQFPATLSVSPGERVTLSCRASQSVSNNLAWYQQKPGQPPRLLIYDASTRATGVPAKFSGTGSGTEFTLSISSLQSEDFAVYYCQQYHNWPPSYSFGLGTKLEIK
Consider B3, for which the Trimeric HA Binding: RLU in assay [33] was determined as 20200 RLU; in assay [34] it was 21900 RLU; in assay [7], 34400 RLU; in assay [8], 5840 RLU; in assay [35], 36100 RLU; in assay [9], 40700 RLU. The Trimeric HA Binding: RLU in assay [10] was 26600 RLU; in assay [11], 33400 RLU; in assay [13], 29400 RLU; in assay [36], 10000 RLU; in assay [25], 24700 RLU; in assay [26], 25500 RLU. In addition, the Trimeric HA Binding: RLU in assay [14] came to 4380 RLU; in assay [27] it was 257 RLU; in [15] it was 27200 RLU; in assay [16] it was 623 RLU; in assay [17], 22000 RLU; in [18] it was 13600 RLU. Further, the values for the Trimeric HA Binding: RLU in assay [19], in [20] and in assay [37] were 320 RLU, 9730 RLU and 12300 RLU, respectively.
